For assay [1], the target named is human proteasome α7 subunit, wild type (self-assembled homo-tetradecamer) (human) (UniProt P25788). The assay is described as follows: high-speed atomic force microscopy (HS-AFM); α7 adsorbed on APTES-mica, α6 added to the observation buffer to 1 μM; 20 mM Tris-HCl (pH 8.0), 150 mM NaCl; more than 20 min after the addition of α6; 10 fps, at most 1000 frames (100 s).

Assay [2] shares this target. The assay is described as follows: high-speed atomic force microscopy (HS-AFM); α7 alone adsorbed on bare mica; 20 mM Tris-HCl (pH 8.0), 150 mM NaCl; tapping mode.
Assay [3] has the same target. The assay is described as follows: high-speed atomic force microscopy (HS-AFM); α7 alone adsorbed on APTES-mica; 20 mM Tris-HCl (pH 8.0), 150 mM NaCl; tapping mode.

Where “and” joins values, the source holds several entries; their conditions need not be identical. Equal entries are not always repeated.

“human proteasome α6 subunit, short isoform (from UniProt P25786 1-263) (natural protein)”: the dwell time of the bound state in assay [1] was over 100 s.
The stoichiometry N is the number of molecules, sites or subunits per partner or assembly. On to “human proteasome α7 subunit, wild type (self-assembled homo-tetradecamer) (from UniProt P25788 1-255) (natural protein)”, for which the percent of oligomers seen as double rings in assay [2] worked out at 67%. Also, in assay [3], the percent of oligomers seen as double rings came out at 21%; the stoichiometry N is 14 and 7.

Values taken from PMC5684232.
